What was measured:
Test in all cases: flow cytometry on cells
CXCR4 D97E (human) = CXCR4 D97E (human) (UniProt P61073)
CXCR4 L41A (human) = CXCR4 L41A (human) (UniProt P61073)
CXCR4 V112L (human) = CXCR4 V112L (human) (UniProt P61073)

fold reduction of the binding affinity against wild-type CXCR4 (CXCR4 D97E (human)): 20 fold
fold increase of the IC50 against wild-type CXCR4 (CXCR4 L41A (human)): 20 fold
fold increase of the IC50 against wild-type CXCR4 (CXCR4 V112L (human)): 6 fold
Substance: Endogenous Peptide Inhibitor of CXCR4 (EPI-X4)

From paper doi:10.1101/2020.10.23.352708
